Test results from patent US20230002480A1.

Experiments:
Experiment in all cases: cell-based or functional assay
[1] = biological target: HIV-1 Env of pseudovirus 0815.v3.c3 (HIV-1)
[2] = biological target: HIV-1 Env of pseudovirus 1012_11_TC21_3257 (HIV-1)
[3] = biological target: HIV-1 Env of pseudovirus 191955_A11 (HIV-1)
[4] = biological target: HIV-1 Env of pseudovirus 211-9 (HIV-1)
[5] = biological target: HIV-1 Env of pseudovirus 231966.c02 (HIV-1)
[6] = biological target: HIV-1 Env of pseudovirus 235-47 (HIV-1)
[7] = biological target: HIV-1 Env of pseudovirus 263-8 (HIV-1)
[8] = biological target: HIV-1 Env of pseudovirus 3016.v5.c45 (HIV-1)
[9] = biological target: HIV-1 Env of pseudovirus 3103.v3.c10 (HIV-1)
[10] = biological target: HIV-1 Env of pseudovirus 6240_08_TA5_4622 (HIV-1)
[11] = biological target: HIV-1 Env of pseudovirus 6952.v1.c20 (HIV-1)
[12] = biological target: HIV-1 Env of pseudovirus 7030102001E5(Rev-) (HIV-1)
[13] = biological target: HIV-1 Env of pseudovirus 9004SS_A3_4 (HIV-1)
[14] = biological target: HIV-1 Env of pseudovirus 928-28 (HIV-1)
[15] = biological target: HIV-1 Env of pseudovirus BJOX009000.02.4 (HIV-1)
[16] = biological target: HIV-1 Env of pseudovirus BJOX028000.10.3 (HIV-1)
[17] = biological target: HIV-1 Env of pseudovirus C1080.c03 (HIV-1)
[18] = biological target: HIV-1 Env of pseudovirus CAAN5342.A2 (HIV-1)
[19] = biological target: HIV-1 Env of pseudovirus CNE21 (HIV-1)
[20] = biological target: HIV-1 Env of pseudovirus Ce0682_E4 (HIV-1)
[21] = biological target: HIV-1 Env of pseudovirus Ce1176_A3 (HIV-1)
[22] = biological target: HIV-1 Env of pseudovirus Ce2010_F5 (HIV-1)
[23] = biological target: HIV-1 Env of pseudovirus Ce2060_G9 (HIV-1)
[24] = biological target: HIV-1 Env of pseudovirus HIV-001428-2.42 (HIV-1)
[25] = biological target: HIV-1 Env of pseudovirus HIV-16055-2.3 (HIV-1)
[26] = biological target: HIV-1 Env of pseudovirus MS208.A1 (HIV-1)
[27] = biological target: HIV-1 Env of pseudovirus P1981_C5_3 (HIV-1)
[28] = biological target: HIV-1 Env of pseudovirus RHPA4259.7 (HIV-1)
[29] = biological target: HIV-1 Env of pseudovirus T250-4 (HIV-1)
[30] = biological target: HIV-1 Env of pseudovirus T257-31 (HIV-1)
[31] = biological target: HIV-1 Env of pseudovirus TRJO4551.58 (HIV-1)
[32] = biological target: HIV-1 Env of pseudovirus X1254_c3 (HIV-1)
[33] = biological target: HIV-1 Env of pseudovirus X1632_S2_B10 (HIV-1)
[34] = biological target: HIV-1 Env of pseudovirus ZM109F.PB4 (HIV-1)
[35] = biological target: HIV-1 Env of pseudovirus ZM197M.PB7 (HIV-1)
[36] = biological target: HIV-1 Env of pseudovirus ZM53M.PB12 (HIV-1)

PGDM1400 (antibody)
IC50, titer in TZM.bl cells [1]: > 50 µg/mL | IC80, titer in TZM.bl cells [1]: > 50 µg/mL | IC50 [2]: 0.049 µg/mL | IC80 [2]: 0.23 µg/mL | IC50 [3]: 0.001 µg/mL | IC80 [3]: 0.021 µg/mL | IC50, titer in TZM.bl cells [4]: 0.088 µg/mL | IC80, titer in TZM.bl cells [4]: 0.393 µg/mL | IC50, titer in TZM.bl cells [5]: 0.001 µg/mL | IC80, titer in TZM.bl cells [5]: 4 ng/mL | IC50, titer in TZM.bl cells [6]: 5 ng/mL | IC80, titer in TZM.bl cells [6]: 0.032 µg/mL | IC50 [7]: 0.02 µg/mL | IC80 [7]: 0.103 µg/mL | IC50, titer in TZM.bl cells [8]: > 50 µg/mL | IC80, titer in TZM.bl cells [8]: > 50 µg/mL | IC50, titer in TZM.bl cells [9]: 0.671 µg/mL | IC80, titer in TZM.bl cells [9]: 2 µg/mL | IC50 [10]: > 50 µg/mL | IC80 [10]: > 50 µg/mL | IC50, titer in TZM.bl cells [11]: 0.501 µg/mL | IC80, titer in TZM.bl cells [11]: 11.8 µg/mL | IC50 [12]: > 50000 ng/mL | IC80 [12]: > 50 µg/mL | IC50 [13]: < 1 ng/mL | IC80 [13]: 2 ng/mL | IC50 [14]: 0.22 µg/mL | IC80 [14]: 1.25 µg/mL | IC50, titer in TZM.bl cells [15]: 0.443 µg/mL | IC80, titer in TZM.bl cells [15]: 1.29 µg/mL | IC50, titer in TZM.bl cells [16]: 0.072 µg/mL | IC80, titer in TZM.bl cells [16]: 0.963 µg/mL | IC50, titer in TZM.bl cells [17]: < 0.001 µg/mL | IC80, titer in TZM.bl cells [17]: < 0.001 µg/mL | IC50 [18]: > 50 µg/mL | IC80 [18]: > 50 µg/mL | IC50 [19]: < 0.001 µg/mL | IC80 [19]: 0.002 µg/mL | IC50 [20]: 0.01 µg/mL | IC80 [20]: 0.043 µg/mL | IC50 [21]: 0.587 µg/mL | IC80 [21]: 11.6 µg/mL | IC50 [22]: > 50 µg/mL | IC80 [22]: > 50 µg/mL | IC50 [23]: 1 ng/mL | IC80 [23]: 7 ng/mL | IC50 [24]: < 0.001 µg/mL | IC80 [24]: 0.027 µg/mL | IC50 [25]: < 0.001 µg/mL | IC80 [25]: 3 ng/mL | IC50 [26]: < 0.001 µg/mL | IC80 [26]: 0.139 µg/mL | IC50, titer in TZM.bl cells [27]: 0.104 µg/mL | IC80, titer in TZM.bl cells [27]: 4.6 µg/mL | IC50 [28]: 0.447 µg/mL | IC80 [28]: 2.19 µg/mL | IC50 [29]: < 1 ng/mL | IC80 [29]: < 1 ng/mL | IC50 [30]: 2 ng/mL | IC80 [30]: 0.031 µg/mL | IC50 [31]: > 50 µg/mL | IC80 [31]: > 50 µg/mL | IC50, titer in TZM.bl cells [32]: > 50 µg/mL | IC80, titer in TZM.bl cells [32]: > 50 µg/mL | IC50, titer in TZM.bl cells [33]: 0.055 µg/mL | IC80, titer in TZM.bl cells [33]: 1.45 µg/mL | IC50 [34]: 0.057 µg/mL | IC80 [34]: 0.382 µg/mL | IC50 [35]: 0.063 µg/mL | IC80 [35]: 0.285 µg/mL | IC50 [36]: 2 ng/mL | IC80 [36]: 0.011 µg/mL

PGT128 (antibody)
IC50, titer in TZM.bl cells [1]: 0.03 µg/mL | IC80, titer in TZM.bl cells [1]: 0.137 µg/mL | IC50 [2]: 0.011 µg/mL | IC80 [2]: 0.033 µg/mL | IC50 [3]: 14.2 µg/mL | IC80 [3]: > 50 µg/mL | IC50, titer in TZM.bl cells [4]: 0.062 µg/mL | IC80, titer in TZM.bl cells [4]: 0.215 µg/mL | IC50, titer in TZM.bl cells [5]: 3.2 µg/mL | IC80, titer in TZM.bl cells [5]: > 50000 ng/mL | IC50, titer in TZM.bl cells [6]: > 50000 ng/mL | IC80, titer in TZM.bl cells [6]: > 50 µg/mL | IC50 [7]: 0.342 µg/mL | IC80 [7]: 3.3 µg/mL | IC50, titer in TZM.bl cells [8]: > 50 µg/mL | IC80, titer in TZM.bl cells [8]: > 50 µg/mL | IC50, titer in TZM.bl cells [9]: 0.014 µg/mL | IC80, titer in TZM.bl cells [9]: 0.033 µg/mL | IC50 [10]: 0.019 µg/mL | IC80 [10]: 0.055 µg/mL | IC50, titer in TZM.bl cells [11]: > 50 µg/mL | IC80, titer in TZM.bl cells [11]: > 50 µg/mL | IC50 [12]: 7 ng/mL | IC80 [12]: 0.022 µg/mL | IC50 [13]: 2 ng/mL | IC80 [13]: 10 ng/mL | IC50 [14]: > 50 µg/mL | IC80 [14]: > 50 µg/mL | IC50, titer in TZM.bl cells [15]: < 0.001 µg/mL | IC80, titer in TZM.bl cells [15]: 0.005 µg/mL | IC50, titer in TZM.bl cells [16]: 0.024 µg/mL | IC80, titer in TZM.bl cells [16]: 0.07 µg/mL | IC50, titer in TZM.bl cells [17]: 0.283 µg/mL | IC80, titer in TZM.bl cells [17]: 2.06 µg/mL | IC50 [18]: 0.514 µg/mL | IC80 [18]: > 50 µg/mL | IC50 [19]: 0.01 µg/mL | IC80 [19]: 0.026 µg/mL | IC50 [20]: > 50 µg/mL | IC80 [20]: > 50 µg/mL | IC50 [21]: 0.009 µg/mL | IC80 [21]: 0.026 µg/mL | IC50 [22]: > 50 µg/mL | IC80 [22]: > 50 µg/mL | IC50 [23]: > 50000 ng/mL | IC80 [23]: > 50000 ng/mL | IC50 [24]: 0.026 µg/mL | IC80 [24]: 0.095 µg/mL | IC50 [25]: > 50 µg/mL | IC80 [25]: > 50000 ng/mL | IC50 [26]: > 50 µg/mL | IC80 [26]: > 50 µg/mL | IC50, titer in TZM.bl cells [27]: 0.019 µg/mL | IC80, titer in TZM.bl cells [27]: 0.088 µg/mL | IC50 [28]: 0.026 µg/mL | IC80 [28]: 0.109 µg/mL | IC50 [29]: < 1 ng/mL | IC80 [29]: 7 ng/mL | IC50 [30]: > 50000 ng/mL | IC80 [30]: > 50 µg/mL | IC50 [31]: 0.018 µg/mL | IC80 [31]: 0.041 µg/mL | IC50, titer in TZM.bl cells [32]: > 50 µg/mL | IC80, titer in TZM.bl cells [32]: > 50 µg/mL | IC50, titer in TZM.bl cells [33]: > 50 µg/mL | IC80, titer in TZM.bl cells [33]: > 50 µg/mL | IC50 [34]: > 50 µg/mL | IC80 [34]: > 50 µg/mL | IC50 [35]: > 50 µg/mL | IC80 [35]: > 50 µg/mL | IC50 [36]: > 50000 ng/mL | IC80 [36]: > 50 µg/mL
